Test results as given in patent US20230312724A1 (KADMON, published 2023).

Tests used:
[1] = target: T1, mouse B7-H4 expressed on cells (mouse, UniProt Q7TSP5 25-257); assay: flow cytometry, CHO cells expressing mB7-H4
T1 construct: also called cellular mB7-H4; mB7-H4/CT26
T1 sequence: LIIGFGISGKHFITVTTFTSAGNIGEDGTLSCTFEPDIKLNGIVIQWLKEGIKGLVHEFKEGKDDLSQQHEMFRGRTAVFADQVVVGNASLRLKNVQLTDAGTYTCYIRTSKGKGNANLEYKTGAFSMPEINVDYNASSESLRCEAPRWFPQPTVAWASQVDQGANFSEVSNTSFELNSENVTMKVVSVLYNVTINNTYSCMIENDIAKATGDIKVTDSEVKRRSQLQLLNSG

[2] = target: T2, IgV domain of mouse B7-H4-Fc (mouse; human); assay: ELISA, coated mB7-H4 IgV domain
T2 construct: also called mB7-H4 IgV domain
How it was run: (§1)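 Direct binding ELISA: immobilized B7-H4-Fc or his-tagged antigen (~1-2 μg/ml, overnight, 4° C), antibody dilution series 1-1.5 h at RT. Readout OD450 after HRP anti-hFab and TMB; EC50 calculated.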

[3] = target: T3, human B7-H4 expressed on cells (human, UniProt Q7Z7D3 25-282); assay: flow cytometry, SK-BR-3 cells
T3 construct: Transfected CHO cells or tumor cell lines that carry hB7-H4; also called cellular hB7-H4
T3 sequence: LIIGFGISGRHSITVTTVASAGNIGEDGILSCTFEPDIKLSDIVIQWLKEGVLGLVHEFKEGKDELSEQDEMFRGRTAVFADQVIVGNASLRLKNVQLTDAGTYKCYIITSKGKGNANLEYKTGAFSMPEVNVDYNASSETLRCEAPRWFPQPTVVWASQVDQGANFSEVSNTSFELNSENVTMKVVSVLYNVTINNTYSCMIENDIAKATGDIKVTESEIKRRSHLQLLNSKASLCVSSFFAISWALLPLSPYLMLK
How it was run: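 Cell-surface binding read by flow cytometry: cells (1×10⁶/ml, cold FACS buffer) + serial dilutions of antibody or fusion protein, 1 h, 4 °C; 3 washes; secondary Ab 1:200, 30 min, 4 °C, dark.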

mouse B7-H4-Fc = target: T4, mouse B7-H4-Fc (mouse; human); assay: ELISA, coated mB7-H4-Fc (title on the sheet: Binding to mB7-H7-Fc)
T4 construct: also called mB7-H4-Fc; mB7-H4-hFc
Method: (§2) About 1-2 μg/ml of human or mouse B7-H4-Fc (or his-tagged) was immobilized on ELISA plates (Immuno 2HB, Thermo scientific, cat #3455) at 4° C. overnight. After blocking the plates with 3% PBS+milk, serial diluted antibodies were added to the blocked plates and incubated at RT for 1-1.5 h. After washing the plates with PBS-T (0.05%), horse radish peroxidase (HRP)-conjugated antibody targeting the hFab was added to the plate. Signals were developed by adding 3,3′,5,5′-Tetramethylbenzidine (TMB (followed 1N of H₂SO₄ to stop the reaction. The OD at 450 nm was read by ELISA plate reader (Infinite M1000 from TECAN). GraphPad from Prism was used to plot OD450 vs. antibody concentration curve and to calculate the EC50 values.

[4] = target: T5, IgC domain of human B7-H4-Fc (human); assay: ELISA, coated hB7-H4 IgC domain (title on the sheet: IgC domain of hB7H4)
T5 construct: also called hB7-H4 IgC domain
Method: as §2

[5] = target: T6, mB7-H4 (soluble mouse B7-H4, construct not named) (mouse, UniProt Q7TSP5 25-257, limits assumed); assay: ELISA and SPR (Biacore)
T6 sequence: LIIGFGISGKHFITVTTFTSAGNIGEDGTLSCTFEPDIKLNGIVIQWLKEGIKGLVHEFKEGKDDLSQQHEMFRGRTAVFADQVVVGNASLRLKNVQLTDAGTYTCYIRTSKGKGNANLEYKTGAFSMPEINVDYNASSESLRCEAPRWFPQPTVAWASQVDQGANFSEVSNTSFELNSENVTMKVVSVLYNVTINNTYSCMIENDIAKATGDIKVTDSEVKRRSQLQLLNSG
Method: as §2
Surface plasmon resonance experiments were performed using a Biacore T200 instrument equipped with CM5 sensor chips. The system was equilibrated in running buffer HBS-EP pH 7.4. The ligands were immobilized using amine-coupling chemistry. The surfaces of flow cells one through four were activated for 5 min using an amine coupling kit at a flow rate of […]. The ligands (human B7-H4-Fc, human B7-H4-hism and mouse B7-H4-Fc; at a concentration of 5 μg/ml in 10 mM sodium acetate, pH 5.0) were immobilized at a density of 50-100 RU on flow cell 2, 3, 4 respectively. Flow cell 1 was left blank to serve as a reference surface. All flow cell surfaces were blocked with a 5 min injection of 1 M ethanolamine, pH 8.0. To collect kinetic binding data, the respective analyte (diluted in 1×HBS-EP buffer, pH 7.4) was injected over the four flow cells at concentrations of 100 nM to 0.1 nM at a flow rate of […] and at a temperature of 25° C. The protein complex was allowed to associate and dissociate for 180 seconds and 1000 or 1200 seconds, respectively. The surfaces were regenerated with a 30 second injection of 1.5 M NaCl/0.05 M NaOH. The data were fit to a simple 1:1 interaction model using the Langmuir fit option available within the Biaevaluaton software

[6] = target: T7, IgC domain of mouse B7-H4-Fc (mouse; human); assay: ELISA, coated mB7-H4 IgC domain (title on the sheet: IgC domain of mB7H4)
T7 construct: also called mB7-H4 IgC domain
Method: as §2

[7] = target: T8, hB7-H4 (soluble human B7-H4, construct not named) (human, UniProt Q7Z7D3 25-259, limits assumed); assay: ELISA, hB7-H4
T8 construct: also called soluble hB7-H4
T8 sequence: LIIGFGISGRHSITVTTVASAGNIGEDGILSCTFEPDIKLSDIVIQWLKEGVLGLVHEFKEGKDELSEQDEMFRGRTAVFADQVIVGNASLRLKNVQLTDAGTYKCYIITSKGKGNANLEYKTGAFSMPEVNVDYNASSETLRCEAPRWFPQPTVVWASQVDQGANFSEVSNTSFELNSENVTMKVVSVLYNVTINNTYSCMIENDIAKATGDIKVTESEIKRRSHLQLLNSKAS
How it was run: as §1

[8] = target: T8, hB7-H4 (soluble human B7-H4, construct …); assay: SPR (Biacore)
How it was run: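 Kinetic constants came from a 1:1 Langmuir fit of binding at 25 °C in HBS-EP, pH 7.4. Analyte (100 nM to 0.1 nM) flowed for 180 s, then dissociated for 1000 or 1200 s, over amine-coupled human B7-H4-Fc, human B7-H4-his or mouse B7-H4-Fc surfaces at 50-100 RU.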

mouse B7-H4-his = target: T9, mouse B7-H4-his (mouse, UniProt Q7TSP5 25-257); assay: ELISA, coated mB7-H4-his
T9 construct: also called mB7-H4-his; mB7-H4-His; not shown: his tag
T9 sequence: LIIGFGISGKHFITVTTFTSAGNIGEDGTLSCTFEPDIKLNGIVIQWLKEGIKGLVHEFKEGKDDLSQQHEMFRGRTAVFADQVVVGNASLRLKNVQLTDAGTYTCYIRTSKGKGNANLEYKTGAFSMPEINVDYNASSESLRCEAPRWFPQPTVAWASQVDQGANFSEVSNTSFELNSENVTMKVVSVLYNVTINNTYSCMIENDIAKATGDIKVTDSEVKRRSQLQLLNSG
Method: as §2

T5 sequence (chain, as listed by the source): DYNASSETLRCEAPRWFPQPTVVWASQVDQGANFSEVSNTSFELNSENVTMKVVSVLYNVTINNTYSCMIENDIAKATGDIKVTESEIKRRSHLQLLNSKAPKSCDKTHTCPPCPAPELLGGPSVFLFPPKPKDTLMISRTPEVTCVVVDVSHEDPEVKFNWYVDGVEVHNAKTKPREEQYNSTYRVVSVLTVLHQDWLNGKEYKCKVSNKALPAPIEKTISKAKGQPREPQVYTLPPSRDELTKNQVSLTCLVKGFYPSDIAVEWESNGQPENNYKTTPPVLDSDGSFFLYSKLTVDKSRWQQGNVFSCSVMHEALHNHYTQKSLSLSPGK
T4 sequence (chain, as listed by the source): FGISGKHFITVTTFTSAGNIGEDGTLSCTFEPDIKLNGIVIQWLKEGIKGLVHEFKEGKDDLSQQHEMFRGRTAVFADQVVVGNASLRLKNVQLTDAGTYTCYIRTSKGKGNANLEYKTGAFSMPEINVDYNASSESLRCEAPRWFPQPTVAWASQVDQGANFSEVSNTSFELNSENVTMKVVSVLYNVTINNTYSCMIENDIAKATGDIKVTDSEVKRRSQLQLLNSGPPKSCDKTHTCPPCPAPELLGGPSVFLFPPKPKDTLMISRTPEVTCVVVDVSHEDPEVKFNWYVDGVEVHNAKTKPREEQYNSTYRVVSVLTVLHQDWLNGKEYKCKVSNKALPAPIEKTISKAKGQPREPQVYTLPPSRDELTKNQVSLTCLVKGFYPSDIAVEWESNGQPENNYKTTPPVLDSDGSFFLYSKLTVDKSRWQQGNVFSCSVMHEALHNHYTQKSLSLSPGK
T7 sequence (chain, as listed by the source): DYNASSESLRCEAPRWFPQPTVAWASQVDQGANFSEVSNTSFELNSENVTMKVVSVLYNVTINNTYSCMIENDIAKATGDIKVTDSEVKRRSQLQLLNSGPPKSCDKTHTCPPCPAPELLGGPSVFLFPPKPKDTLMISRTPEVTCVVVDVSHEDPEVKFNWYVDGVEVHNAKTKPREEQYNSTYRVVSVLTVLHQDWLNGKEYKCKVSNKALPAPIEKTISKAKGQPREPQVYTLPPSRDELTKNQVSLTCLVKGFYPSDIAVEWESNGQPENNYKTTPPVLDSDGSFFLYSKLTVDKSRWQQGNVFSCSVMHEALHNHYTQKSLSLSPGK
T2 sequence (chain, as listed by the source): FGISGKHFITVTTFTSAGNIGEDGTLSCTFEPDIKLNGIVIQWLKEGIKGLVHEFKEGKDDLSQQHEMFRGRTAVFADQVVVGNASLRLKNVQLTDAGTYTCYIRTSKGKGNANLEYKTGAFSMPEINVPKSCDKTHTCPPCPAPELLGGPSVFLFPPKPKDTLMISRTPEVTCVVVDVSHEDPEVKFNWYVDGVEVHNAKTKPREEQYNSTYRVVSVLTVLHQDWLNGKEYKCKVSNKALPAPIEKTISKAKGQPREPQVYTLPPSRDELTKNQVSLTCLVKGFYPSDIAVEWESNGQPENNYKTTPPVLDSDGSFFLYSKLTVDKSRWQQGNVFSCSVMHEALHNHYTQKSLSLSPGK

binding result [1]: no binding (tested: log 2 nM (100 nM))
EC50 [3]: 52.1 nM
binding result [5]: no binding
EC50 [7]: 0.041 nM
Kd [8]: 0.317 nM
B1: 1D3/45A2 (antibody, human IgG1, V domains shown)
VH: EVQLLESGGGLVQPGGSLRLSCAASGFTFNTHAMHWVRQAPGKGLEWVSAISGSGGSTYYADSVKGRFTISRDISKNTLYLQMNSLRAEDTAVYYCARLLGRFGEYGMDVWGQGTTVTVSS
VL: DIQMTQSPSSLSASVGDRVTITCRASQNIYTWLAWYQQKPGKAPKLLIYDATNLPTGVPSRFSGSGSGTDFTLTISSLQPEDFATYYCQQSYSTRWTFGGGTKVEIK
notes: 1D3 VH with 45A2 VL
binding result [2]: no binding (tested: axis value -8 (labelled log nM))
binding result (mouse B7-H4-Fc): no binding (tested: axis value -8 (log scale labelled nM))
binding result [4]: no binding (tested: axis value -8 (labelled log nM))
binding result [6]: no binding (tested: axis value -8 (labelled log nM))
binding result (mouse B7-H4-his): no binding (tested: axis value -8 (labelled log nM))
